# [ ]: non-standard residue; d: D form. Phe(3-Me) = Cc1cccc(C[C@H](N)C(=O)O)c1; Phe(4-Me) = Cc1ccc(C[C@H](N)C(=O)O)cc1; Phe(2-Me) = Cc1ccccc1C[C@H](N)C(=O)O; Arg(Me) = CNC(=N)NCCC[C@H](N)C(=O)O; Dap(CONH2) = NC(=O)NC[C@H](N)C(=O)O; Ala(cPr) = N[C@@H](CC1CC1)C(=O)O; Hyp = O=C(O)[C@@H]1C[C@@H](O)CN1; αMeF = C[C@](N)(Cc1ccccc1)C(=O)O; 2Pal = N[C@@H](Cc1ccccn1)C(=O)O; 3Pal = N[C@@H](Cc1cccnc1)C(=O)O; 4Pal = N[C@@H](Cc1ccncc1)C(=O)O; Cha = N[C@@H](CC1CCCCC1)C(=O)O
# B1: des(1)-Ac-[D-Tyr2,Hyp3,Thr5,Ala(cPr)6,Arg(Me)9,Trp10]MS10 (peptide)
# peptide: Ac-[dY][Hyp]NT[Ala(cPr)]GL[Arg(Me)]W-NH2
# B2: des(1)-Ac-[D-Tyr2,Glu3,Thr5,Cha6,Ala(cPr)8,Arg(Me)9,Trp10]MS10 (peptide)
# peptide: Ac-[dY]ENT[Cha]G[Ala(cPr)][Arg(Me)]W-NH2
# B3: des(1)-Ac-[D-Tyr2,Hyp3,Thr5,Phe(2Me)6,Arg(Me)9,Trp10]MS10 (peptide)
# peptide: Ac-[dY][Hyp]NT[Phe(2-Me)]GL[Arg(Me)]W-NH2
# B4: des(1)-Ac-[D-Tyr2,Hyp3,Thr5,Gly7Ψ(CH2CH2)Leu8,Arg(Me)9,Trp10]MS10 (peptide)
# peptide: Ac-[dY][Hyp]NTFGL[Arg(Me)]W-NH2
# modifications: also: Gly6-Leu7 -CONH- replaced by -CH2CH2-
# B5: des(1)-Ac-[D-Tyr2,Hyp3,Thr5,Ala7,Arg(Me)9,Trp10]MS10 (peptide)
# peptide: Ac-[dY][Hyp]NTFAL[Arg(Me)]W-NH2
# B6: des(1)-Ac-[D-Tyr2,Hyp3,Thr5,Phe6Ψ((R)CHOH-(E)CH═)Gly7,Arg(Me)9,Trp10]MS10 (peptide)
# peptide: Ac-[dY][Hyp]NTFGL[Arg(Me)]W-NH2
# modifications: also: Phe5-Gly6 -CONH- replaced by (R)-CH(OH)-(E)CH= to Gly α carbon
# B7: des(1)-Ac-[D-Tyr2,Glu3,Thr5,Cha6,Gly7Ψ((E)CH═CH)Leu8,Arg(Me)9,Trp10]MS10 (peptide)
# peptide: Ac-[dY]ENT[Cha]GL[Arg(Me)]W-NH2
# modifications: also: Gly6-Leu7 -CONH- replaced by (E) type alkene
# B8: des(1)-Ac-[D-Tyr2,Glu3,Thr5,Cha6,Arg(Me)9,Trp10]MS10 (peptide)
# peptide: Ac-[dY]ENT[Cha]GL[Arg(Me)]W-NH2
# B9: des(1)-Ac-[D-Tyr2,Glu3,Alb4,Thr5,Cha6,Gly7Ψ((E)CH═CH)Leu8,Arg(Me)9,Trp10]MS10 (peptide)
# peptide: Ac-[dY]E[Dap(CONH2)]T[Cha]GL[Arg(Me)]W-NH2
# modifications: also: Gly6-Leu7 -CONH- replaced by (E) type alkene
# B10: des(1)-Ac-[D-Tyr2,Hyp3,Thr5,Phe6Ψ((S)CHOH-CH2)Gly7,Arg(Me)9,Trp10]MS10 (peptide)
# peptide: Ac-[dY][Hyp]NTFGL[Arg(Me)]W-NH2
# modifications: also: Phe5-Gly6 amide bond replaced by -CH(OH)-CH2- ((S)-CHOH)
# B11: des(1)-Ac-[D-Tyr2,Hyp3,Thr5,Phe(4Me)6,Arg(Me)9,Trp10]MS10 (peptide)
# peptide: Ac-[dY][Hyp]NT[Phe(4-Me)]GL[Arg(Me)]W-NH2
# B12: des(1)-Ac-[D-Tyr2,Hyp3,Thr5,Gly7Ψ((E)CH═CH)Leu8,Arg(Me)9,Trp10]MS10 (peptide)
# peptide: Ac-[dY][Hyp]NTFGL[Arg(Me)]W-NH2
# modifications: also: Gly6-Leu7 -CONH- replaced by (E) CH=CH
# B13: des(1)-Ac-[D-Tyr2,Hyp3,Thr5,Phe6Ψ((R)CHOH-CH2)Gly7,Arg(Me)9,Trp10]MS10 (peptide)
# peptide: Ac-[dY][Hyp]NTFGL[Arg(Me)]W-NH2
# modifications: also: Phe5-Gly6 -CONH- replaced by (R)-CH(OH)-CH2-
# B14: des(1)-Ac-[D-Tyr2,Hyp3,Thr5,Arg(Me)9,Trp10]MS10 (peptide)
# peptide: Ac-[dY][Hyp]NTFGL[Arg(Me)]W-NH2
# B15: des(1)-Ac-[D-Tyr2,Hyp3,Thr5,Phe(3Me)6,Arg(Me)9,Trp10]MS10 (peptide)
# peptide: Ac-[dY][Hyp]NT[Phe(3-Me)]GL[Arg(Me)]W-NH2
# B16: des(1)-Ac-[D-Tyr2,Hyp3,Thr5,Phe6Ψ(COCH2)Gly7,Arg(Me)9,Trp10]MS10 (peptide)
# peptide: Ac-[dY][Hyp]NTFGL[Arg(Me)]W-NH2
# modifications: also: Phe5-Gly6 amide bond replaced by -COCH2-
# B17: des(1)-Ac-[D-Tyr2,Hyp3,Thr5,Phe6Ψ(CH2CH2)Gly7,Arg(Me)9,Trp10]MS10 (peptide)
# peptide: Ac-[dY][Hyp]NTFGL[Arg(Me)]W-NH2
# modifications: also: Phe5-Gly6 amide bond replaced by -CH2CH2-
# B18: des(1)-Ac-[D-Tyr2,Hyp3,Thr5,αMePhe6,Arg(Me)9,Trp10]MS10 (peptide)
# peptide: Ac-[dY][Hyp]NT[αMeF]GL[Arg(Me)]W-NH2
# SMILES: CNC(=N)NCCC[C@H](NC(=O)[C@H](CC(C)C)NC(=O)CNC(=O)[C@](C)(Cc1ccccc1)NC(=O)[C@@H](NC(=O)[C@H](CC(N)=O)NC(=O)[C@@H]1C[C@@H](O)CN1C(=O)[C@@H](Cc1ccc(O)cc1)NC(C)=O)[C@@H](C)O)C(=O)N[C@@H](Cc1c[nH]c2ccccc12)C(N)=O
# B19: des(1)-Ac-[D-Tyr2,Hyp3,Thr5,Phe6Ψ(CH2O)Gly7,Arg(Me)9,Trp10]MS10 (peptide)
# peptide: Ac-[dY][Hyp]NTFGL[Arg(Me)]W-NH2
# modifications: also: Phe5-Gly6 amide bond replaced by -CH2O-
# B20: des(1)-Ac-[D-Tyr2,Hyp3,Thr5,Ser7,Arg(Me)9,Trp10]MS10 (peptide)
# peptide: Ac-[dY][Hyp]NTFSL[Arg(Me)]W-NH2
# B21: des(1)-Ac-[D-Tyr2,Hyp3,Alb4,Thr5,Cha6,Gly7Ψ((E)CH═CH)Leu8,Arg(Me)9,Trp10]MS10 (peptide)
# peptide: Ac-[dY][Hyp][Dap(CONH2)]T[Cha]GL[Arg(Me)]W-NH2
# modifications: also: Gly6-Leu7 -CONH- replaced by (E) type alkene
# B22: des(1)-Ac-[D-Tyr2,Glu3,Thr5,Arg(Me)9,Trp10]MS10 (peptide)
# peptide: Ac-[dY]ENTFGL[Arg(Me)]W-NH2
# B23: des(1)-Ac-[D-Tyr2,Hyp3,Thr5,Pya(4)6,Arg(Me)9,Trp10]MS10 (peptide)
# peptide: Ac-[dY][Hyp]NT[4Pal]GL[Arg(Me)]W-NH2
# B24: des(1)-Ac-[D-Tyr2,Hyp3,Thr5,Phe6Ψ((E)CH═CH)Gly7,Arg(Me)9,Trp10]MS10 (peptide)
# peptide: Ac-[dY][Hyp]NTFGL[Arg(Me)]W-NH2
# modifications: also: Phe5-Gly6 -CONH- replaced by (E) CH=CH
# B25: des(1)-Ac-[D-Tyr2,Hyp3,Thr5,Phe6Ψ((S)CHOH-(E)CH═)Gly7,Arg(Me)9,Trp10]MS10 (peptide)
# peptide: Ac-[dY][Hyp]NTFGL[Arg(Me)]W-NH2
# modifications: also: Phe5-Gly6 amide bond replaced by -CH(OH)-CH= ((S)-CHOH, (E) alkene)
# B26: des(1)-Ac-[D-Tyr2,Hyp3,Thr5,Cha6,Gly7Ψ((E)CH═CH)Leu8,Arg(Me)9,Trp10]MS10 (peptide)
# peptide: Ac-[dY][Hyp]NT[Cha]GL[Arg(Me)]W-NH2
# modifications: also: Gly6-Leu7 -CONH- replaced by (E)-CH=CH-
# B27: des(1)-Ac-[D-Tyr2,Hyp3,Thr5,Gly7Ψ(CH2NH)Leu8,Arg(Me)9,Trp10]MS10 (peptide)
# peptide: Ac-[dY][Hyp]NTFGL[Arg(Me)]W-NH2
# modifications: also: Gly6-Leu7 -CONH- replaced by -CH2NH-
# B28: des(1)-Ac-[D-Tyr2,Hyp3,Thr5,Pya(3)6,Arg(Me)9,Trp10]MS10 (peptide)
# peptide: Ac-[dY][Hyp]NT[3Pal]GL[Arg(Me)]W-NH2
# B29: des(1)-Ac-[D-Tyr2,Hyp3,Alb4,Thr5,Gly7Ψ((E)CH═CH)Leu8,Arg(Me)9,Trp10]MS10 (peptide)
# peptide: Ac-[dY][Hyp][Dap(CONH2)]TFGL[Arg(Me)]W-NH2
# modifications: also: Gly6-Leu7 -CONH- replaced by (E)-CH=CH-
# B30: des(1)-Ac-[D-Tyr2,Hyp3,Alb4,Thr5,Arg(Me)9,Trp10]MS10 (peptide)
# peptide: Ac-[dY][Hyp][Dap(CONH2)]TFGL[Arg(Me)]W-NH2
# B31: des(1)-Ac-[D-Tyr2,Hyp3,Thr5,Val7,Arg(Me)9,Trp10]MS10 (peptide)
# peptide: Ac-[dY][Hyp]NTFVL[Arg(Me)]W-NH2
# B32: des(1)-Ac-[D-Tyr2,Hyp3,Thr5,Cha6,Ala(cPr)8,Arg(Me)9,Trp10]MS10 (peptide)
# peptide: Ac-[dY][Hyp]NT[Cha]G[Ala(cPr)][Arg(Me)]W-NH2
# SMILES: CNC(=N)NCCC[C@H](NC(=O)[C@H](CC1CC1)NC(=O)CNC(=O)[C@H](CC1CCCCC1)NC(=O)[C@@H](NC(=O)[C@H](CC(N)=O)NC(=O)[C@@H]1C[C@@H](O)CN1C(=O)[C@@H](Cc1ccc(O)cc1)NC(C)=O)[C@@H](C)O)C(=O)N[C@@H](Cc1c[nH]c2ccccc12)C(N)=O
# B33: des(1)-Ac-[D-Tyr2,Hyp3,Thr5,Pya(2)6,Arg(Me)9,Trp10]MS10 (peptide)
# peptide: Ac-[dY][Hyp]NT[2Pal]GL[Arg(Me)]W-NH2
# Biological target: metastin receptor (OT7T175) stably expressed on CHO/dhfr- cells (human or rat, not given)
# Assay: cell-based or functional assay
row,"Specific Activity (EC50 of test compound based on EC50 of Metastin (45-54)); agonist activity, intracellular calcium ion level, FLIPR (ratio to Metastin (45-54))",Molecule
1,0.5,"des(1)-Ac-[D-Tyr2,Hyp3,Thr5,Cha6,Ala7,Arg(Me)9,Trp10]MS10 (peptide)"
2,1.3,"des(1)-Ac-[D-Tyr2,Hyp3,Thr5,Dap7,Arg(Me)9,Trp10]MS10 (peptide)"
3,0.6,"des(1)-Ac-[D-Tyr2,Hyp3,Thr5,Phe6Ψ(CH2CH2)AzaGly7,Arg(Me)9,Trp10]MS10 (peptide)"
4,0.4,"des(1)-Ac-[D-Tyr2,Pro(4F)3,Thr5,Cha6,Ala(cPr)8,Arg(Me)9,Trp10]MS10 (peptide)"
5,1.9,B1
6,0.4,B2
7,0.7,B3
8,0.8,B4
9,0.5,B5
10,1.4,B6
11,0.5,B7
12,0.6,B8
13,0.5,B9
14,1.2,B10
15,0.9,B11
16,0.6,B12
17,0.8,B13
18,1.2,B14
19,0.8,B15

row,"Specific Activity (EC50 of test compound based on EC50 of Metastin (45-54)); agonist activity, intracellular calcium ion level, FLIPR (ratio to Metastin (45-54))",Molecule
1,1.1,B16
2,1.3,B17
3,3.8,B18
4,0.5,B19
5,0.6,B20
6,0.4,B21
7,0.5,B22
8,0.9,B23
9,0.7,B24
10,1.7,B25
11,0.6,B26
12,2.9,B27
13,0.9,B28
14,0.6,B29
15,0.5,B30
16,1.7,B31
17,0.5,B32
18,1.2,B33

# From US7786083B2, “Metastin derivatives and use thereof” (Takeda Pharmaceutical Company Limited, priority 2006, dated 2010)
